How the values were obtained:
[1] = target: T1, recombinant murine FcγRIIB (CD32), biotinylated (murine, UniProt P08101 30-207, limits assumed, site-directed biotinylation at AviTag); test: SPR (Biacore T200), 37 C, biotin-captured receptor
T1 construct: also called murine CD32B; mouse CD32B
T1 sequence (looked up): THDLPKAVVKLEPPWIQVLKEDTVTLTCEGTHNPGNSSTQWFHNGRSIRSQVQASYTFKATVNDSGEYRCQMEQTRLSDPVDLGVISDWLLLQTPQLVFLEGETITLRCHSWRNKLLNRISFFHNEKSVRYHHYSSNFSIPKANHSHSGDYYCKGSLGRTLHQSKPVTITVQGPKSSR
Method: (§1) Sensor chips were pre-equilibrated in HBS-P+ running buffer for 12 hours prior to the first measurement and the detectors were normalized using BIAnormalization solution (70% w/w glycerol) according to the manufacturer's instructions.
(§2) Interaction analysis of FcRn binding was performed at pH 6.0 in PBS/0.05% Tween 20; analytes and ligands were diluted in the same buffer. […] Ligand-free surfaces in FC1 and FC3 were used as references for response signals (FC2-1, FC4-3). Interaction analysis of CD64, CD32, and murine CD16-2 binding was performed in HBS-P+ buffer and analytes and ligands were diluted in the same buffer. Biotinylated Fcγ-Receptors were captured to a density of approximately 15 to 30 RU (FC2, FC3, and FC4) before increasing concentrations (500 nM to 4000 nM) of antibody were injected, using the single-cycle kinetic mode (FC1-FC4) at a flow rate of 40 μL/min for 100 seconds followed by dissociation for 90 seconds. A zero-concentration cycle and ligand-free surface in FC1 was used for referencing of response signals (FC2-1, FC3-1, and FC4-1). Sensor chip surfaces were prepared and regenerated before and after each measurement using Biotin Capture reagent (Biotin CAPture Kit, GE Healthcare) and 6 M guanidine-HCl, 0.25 M NaOH, respectively.
(§3) Binding affinities were determined by fitting data using the steady state affinity model of the Biacore T200 Evaluation software (v3.1).

[2] = target: T2, recombinant human neonatal Fc receptor (FcRn), biotinylated (human, UniProt P55899 24-297, site-directed biotinylation at AviTag); test: SPR (Biacore T200), 37 C, pH 6.0, biotin-captured FcRn, steady-state affinity
T2 construct: also called human FcRn
T2 sequence (P55899 24-297 limits assumed, form in doubt): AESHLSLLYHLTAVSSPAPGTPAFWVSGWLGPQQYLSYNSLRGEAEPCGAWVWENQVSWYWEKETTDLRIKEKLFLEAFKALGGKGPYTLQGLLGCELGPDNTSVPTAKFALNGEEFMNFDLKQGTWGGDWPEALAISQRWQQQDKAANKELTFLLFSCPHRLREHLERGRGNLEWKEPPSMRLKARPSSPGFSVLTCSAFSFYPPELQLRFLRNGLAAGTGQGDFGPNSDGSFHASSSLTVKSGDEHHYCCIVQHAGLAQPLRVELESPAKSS
Method: as §1, §2, §3

[3] = target: T3, recombinant cynomolgus neonatal Fc receptor (FcRn), biotinylated (cynomolgus, UniProt Q8SPV9 24-297, limits assumed, site-directed biotinylation at AviTag); test: as above
T3 construct: also called cynomolgus FcRn
T3 sequence (Q8SPV9 24-297 limits assumed, form in doubt): as the sequence (P55899 24-297 limits assumed, form in doubt) above, with N39D, E44Q, G99S, S189G, S190N, L217M, S269T counted along it
Method: as §1, §2, §3

[4] = target: T4, CD123 on CD123+ cells (EOL-1 and other CD123+ tumour or patient cells) (human, UniProt P26951 19-378); test: flow cytometry on CD123+ EOL-1 cells, anti-human IgG-APC detection
T4 construct: whole, on cells; also called interleukin-3 receptor
T4 sequence (P26951 19-378): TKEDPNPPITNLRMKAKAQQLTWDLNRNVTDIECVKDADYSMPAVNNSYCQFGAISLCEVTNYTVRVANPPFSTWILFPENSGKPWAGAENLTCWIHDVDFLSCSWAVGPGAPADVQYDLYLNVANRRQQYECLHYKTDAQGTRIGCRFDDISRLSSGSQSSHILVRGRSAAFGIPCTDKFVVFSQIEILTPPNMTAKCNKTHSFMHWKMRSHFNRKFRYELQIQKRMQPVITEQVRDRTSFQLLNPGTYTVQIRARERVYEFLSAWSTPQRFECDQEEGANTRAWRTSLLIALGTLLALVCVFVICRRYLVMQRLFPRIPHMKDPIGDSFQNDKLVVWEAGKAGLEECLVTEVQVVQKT
Method: To analyze binding of CD123xCD16A antibody constructs to CD123+ EOL-1 cells, CD123− A-431 cells and CD123− Karpas-299 cells by flow cytometry, 1×10⁵ cells were resuspended in 100 μL FACS buffer in round-bottom 96-well microtiter plates. After washing in FACS buffer, cells were incubated in 100 μL FACS buffer without antibodies or with titrated antibodies starting at a concentration of 100 μg/mL followed by eight 10-fold serial dilutions for 45 min on ice in the dark. After washing twice, cells were incubated with APC-conjugated goat anti-human IgG (H+L)-APC (1/200 dilution) for 30 min on ice in the dark. After washing, binding was measured by flow cytometry and mean fluorescence intensities (MFI) of cell samples were calculated and corrected for background staining using control cells stained with secondary antibodies only.

[5] = target: T5, human CD16A (158F) on transfected CHO cells (cAg_34) (human, UniProt P08637 17-254); test: flow cytometry on huCD16A-transfected CHO cells (cAg_34), one-site fit of MFI, experiment 3
T5 construct: Exact cell-anchored construct not described; also called huCD16A
T5 sequence (P08637 17-254 limits assumed): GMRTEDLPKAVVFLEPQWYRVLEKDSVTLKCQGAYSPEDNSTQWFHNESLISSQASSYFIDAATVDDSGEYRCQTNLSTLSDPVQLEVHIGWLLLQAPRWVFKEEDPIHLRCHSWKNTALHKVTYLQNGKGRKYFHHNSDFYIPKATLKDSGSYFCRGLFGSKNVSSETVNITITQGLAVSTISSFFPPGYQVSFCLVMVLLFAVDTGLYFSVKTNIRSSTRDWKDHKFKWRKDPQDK
Method: After washing in FACS buffer, cells were incubated in 50 μL FACS buffer without antibodies or with titrated antibodies starting at a concentration of 100 μg/mL followed by ten 5-fold serial dilutions for 30 min on ice in the dark. After washing twice, cells were incubated with APC-conjugated goat anti-human IgG (H+L)-APC (Dianova, cat. 109-136-088) for 30 min on ice in the dark. […] After washing, binding was measured by flow cytometry and mean fluorescence intensities (MFI) of cell samples were calculated and corrected for background staining using control cells stained with secondary antibodies only.
Equilibrium dissociation constants (KD) of antibody binding were calculated by plotting MFI values and fitting a non-linear regression model for one-site binding to hyperbolic dose-response curves using GraphPad Prism.

[6] = target: T3, recombinant cynomolgus neonatal Fc …; test: SPR (Biacore), 37 °C, pH 6.0, biotin-captured cynomolgus FcRn as ligand, steady-state affinity fit
Method: Affinity parameters were evaluated for interaction with human FcRn, cynomolgus FcRn or murine FcRn using a Steady State Binding model (D-F).

[7] = target: T6, recombinant murine FcγRI (CD64), biotinylated (murine, UniProt P26151 25-297, limits assumed, site-directed biotinylation at AviTag); test: SPR (Biacore), 37 °C, biotin-captured murine CD64 as ligand, steady-state plot; left-hand column, no heading on the sheet
T6 construct: also called murine CD64; mouse CD64
T6 sequence (looked up): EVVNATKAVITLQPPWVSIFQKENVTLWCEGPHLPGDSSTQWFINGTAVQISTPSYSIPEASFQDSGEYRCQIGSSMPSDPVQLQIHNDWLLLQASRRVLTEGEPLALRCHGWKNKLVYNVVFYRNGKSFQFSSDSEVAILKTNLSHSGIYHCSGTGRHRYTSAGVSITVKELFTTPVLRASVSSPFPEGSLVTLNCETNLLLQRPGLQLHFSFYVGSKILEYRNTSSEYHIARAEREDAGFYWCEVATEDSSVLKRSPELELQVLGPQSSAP
Method: FIG. 20: SPR interaction analysis of antibody binding to CD64 and murine CD16-2. […] Affinity parameters were evaluated for interaction with receptors using a Steady State Binding model.

B1: scFv-IgAb_268 (CD123-1xCD16a1) (bispecific antibody)
heavy: QVQLQQSGAEVKKPGASVKVSCKASGYTFTDYYMKWVKQSHGKSLEWMGDIIPSNGATFYNQKFKGKATLTVDRSTSTAYMELSSLRSEDTAVYYCARSHLLRASWFAYWGQGTLVTVSSASTKGPSVFPLAPSSKSTSGGTAALGCLVKDYFPEPVTVSWNSGALTSGVHTFPAVLQSSGLYSLSSVVTVPSSSLGTQTYICNVNHKPSNTKVDKKVEPKSCDKTHTCPPCPAPEFEGGPSVFLFPPKPKDTLMISRTPEVTCVVVAVSHEDPEVKFNWYVDGVEVHNAKTKPREEQYNSTYRVVSVLTVLHQDWLNGKEYKCKVSNKALPAPIEKTISKAKGQPREPQVYTLPPSREEMTKNQVSLTCLVKGFYPSDIAVEWESNGQPENNYKTTPPVLDSDGSFFLYSKLTVDKSRWQQGNVFSCSVMHEALHNHYTQKSLSLSPGGGGGSGGGGSGGGGSGGGGSGGGGSGGGGSSYELTQPLSVSVALGQTARITCGGNNIGSKSVHWYQQKPGQAPVLVIYQDKKRPSGIPERFSGSNSGNTATLTISRAQAGDEADYYCQVWDDYIVLFGCGTKLTVLGGSGGSGGSGGSGGSGGSGGSQVQLVQSGAEVKKPGASVKVSCKASGYTFTNYYMQWVRQAPGQCLEWMGIINPSGGVTSYAQKFQGRVTMTRDTSTSTVYMELSSLRSEDTAVYYCARGSAYYYDFADYWGQGTLVTVSS
light: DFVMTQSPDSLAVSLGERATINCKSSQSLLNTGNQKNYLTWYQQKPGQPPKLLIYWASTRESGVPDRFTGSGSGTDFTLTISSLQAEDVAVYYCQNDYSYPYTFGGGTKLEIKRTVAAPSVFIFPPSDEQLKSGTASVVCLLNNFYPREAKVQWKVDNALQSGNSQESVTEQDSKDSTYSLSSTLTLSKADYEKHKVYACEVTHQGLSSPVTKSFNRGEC
notes: also called AFM28; CD123xCD16A scFv-IgAb_268
In the case of B1, the binding result [1] is reported as “no binding (tested: 500 nM to 4000 nM)”, the Kd [2] is reported as 364 nM and the Kd [3] is reported as 238 nM. For the same binder, the “EC50 (read off the curve)” value [4] was ~0.4 nM, the Kd [5] was 23.5 nM and the Kd [6] was 238 nM. B1: no binding (tested: 2e-6 M (last point visible)) [7].

From patent US20260070986A1 (AFFIMED, published 2026)
